Measurements taken from the FLAb antibody collection (doi:10.7554/elife.23156).

B1: scFv; the commonest letter at each place (parent)
chain 1: EVKLDETGGGLVQPGRPMKLSCVASGFTFSDYWMNWVRQSPEKGLEWVAQIRNKPYNYETYYSDSVKGRFTISRDDSKSSVYLQMNNLRVEDMGIYYCTGSYYGMDYWGQGTSVTVS
chain 2: DVVMTQTPLSLPVSLGDQASISCRSSQSLVHSNGNTYLRWYLQKPGQSPKVLIYKVSNRFSGVPDRFSGSGSGTDFTLKISRVEAEDLGVYFCSQSTHVPWTFGGGTKLEIK

What was measured:
[1] = variants of: B1; test: Kd (Tite-Seq); conditions: with fluorescein; format: scFv 4-4-20, heavy + light
[2] = variants of: B1; test: yeast surface expression (ratio to wild type); higher = more expressed; conditions: format: scFv 4-4-20, heavy + light

Variant | Kd [1] [µM] | yeast surface expression [2]
chain 1 D31A W33I | ≥ 10 | 0.872
chain 1 D31A W33L | ≥ 10 | 0.534
chain 1 D31H N35A W36R | ≥ 10 | 2.27
chain 1 D31I W36E | ≥ 10 | 0.663
chain 1 D31L W33D | ≥ 10 | 0.81
chain 1 D31R Y32D | ≥ 10 | 0.643
chain 1 D31R Y32I | ≥ 10 | 0.818
chain 1 D31G W33Q | ≥ 10 | 0.657
chain 1 D31G W33P | ≥ 10 | 0.569
chain 1 D31W W33L N35I | ≥ 10 | 0.49
chain 1 D31C V37K | ≥ 10 | 0.453
chain 1 D31S V37N | ≥ 10 | 0.629
chain 1 D31S V37P | ≥ 10 | 0.675
chain 1 D31V Y32P | ≥ 10 | 0.759
chain 1 D31H W33L | ≥ 10 | 0.72
chain 1 D31H W33P | ≥ 10 | 0.631
chain 1 D106C W108H | ≥ 10 | 0.583
chain 1 D106C W108K | ≥ 10 | 0.314
chain 1 D31F W33I | ≥ 10 | 0.487
chain 1 D106M W108H | ≥ 10 | 0.556
chain 1 D31P M34V | ≥ 10 | 0.733

Variant | Kd [1] [µM] | yeast surface expression [2]
chain 1 D31L Y32M W36M | ≥ 10 | 0.543
chain 1 D106G Y107W | ≥ 10 | 0.338
chain 1 D106G Y107S | ≥ 10 | 0.474
chain 1 D106L G109C | ≥ 10 | 0.166
chain 1 D106L G109H | ≥ 10 | 0.0932
chain 1 D106L G109S | ≥ 10 | 0.464
chain 1 D31M W36A | ≥ 10 | 1.72
chain 1 D31E W36Q | ≥ 10 | 0.326
chain 1 D31E W36H | ≥ 10 | 0.658
chain 1 D31I | ≥ 10 | 0.531
chain 1 D31P | ≥ 10 | 0.853
chain 1 D31V | ≥ 10 | 0.515
chain 1 D31C N35Y | ≥ 10 | 0.763
chain 1 D31V M34C | ≥ 10 | 0.411
chain 1 D31P V37W | ≥ 10 | 0.565
chain 1 D106A G109H | ≥ 10 | 0.448
chain 1 D31G Y32D | ≥ 10 | 0.803
chain 1 D106N W108Q | ≥ 10 | 0.453
chain 1 D106N W108K | ≥ 10 | 0.446
chain 1 D31E Y32P | ≥ 10 | 0.77
chain 1 D31E V37L | ≥ 10 | 0.735

Variant | Kd [1] [µM] | yeast surface expression [2]
chain 1 D31A N35T V37S | ≥ 10 | 0.281
chain 1 D106N G109N | ≥ 10 | 0.301
chain 1 D106N G109K | ≥ 10 | 0.277
chain 1 D106A W108V | ≥ 10 | 0.529
chain 1 D106A W108M | ≥ 10 | 0.713
chain 1 D31E W33C | ≥ 10 | 0.827
chain 1 D31E W33N | ≥ 10 | 0.845
chain 1 D106K W108G | ≥ 10 | 0.276
chain 1 D31Q W36V | ≥ 10 | 0.596
chain 1 D106H G109K | ≥ 10 | 0.265
chain 1 D31A W36M | ≥ 10 | 0.551
chain 1 D31A W36H | ≥ 10 | 0.137
chain 1 D31Q Y32R V37Q | ≥ 10 | 0.133
chain 1 D31R W36N | ≥ 10 | 1.06
chain 1 D106G W108E | ≥ 10 | 0.575
chain 1 D31T W33N | ≥ 10 | 0.661
chain 1 D31T W33E | ≥ 10 | 0.544
chain 1 D31T W33L | ≥ 10 | 0.518
chain 1 D31K W33I M34N | ≥ 10 | 0.395

The next lines start with results.

Kd [1] [µM] | Variant | yeast surface expression [2]
≥ 10 | chain 1 D106L W108R G109Y | 0.0998
≥ 10 | chain 1 D31R W33S M34P | 0.182
6.61 | chain 1 D31S Y32C | 0.648
0.018 | chain 1 D31S Y32F | 0.876
0.24 | chain 1 D31S Y32G | 0.78
≥ 10 | chain 1 D31S Y32W | 0.83
9.02 | chain 1 D31W W33G | 0.542
0.004 | chain 1 D31S M34I | 0.757
≥ 10 | chain 1 D31S M34R | 0.424
≥ 10 | chain 1 D31S M34G | 0.543
≥ 10 | chain 1 D31L W36H | 0.82
≥ 10 | chain 1 D106L W108C | 0.234
≥ 10 | chain 1 D106L W108M | 0.541
≥ 10 | chain 1 D106L W108I | 0.314
0.676 | chain 1 D31Y M34K | 0.834
0.00194 | chain 1 D31N M34A | 0.614
0.0592 | chain 1 D31Y V37Q | 1.38
0.0729 | chain 1 D31K Y32G | 0.879
0.79 | chain 1 D31R W36M V37G | 3.04
0.0944 | chain 1 D31R Y32A | 0.863
9.02 | chain 1 D31S V37H | 0.644
0.972 | chain 1 D31V Y32L | 0.584
0.00546 | chain 1 D31N Y32L | 0.878
0.00672 | chain 1 D31N Y32M | 0.945
1.91 | chain 1 D106A Y107F | 0.508
6.61 | chain 1 D106A Y107I | 0.646
0.00245 | chain 1 D31S | 0.902

Kd [1] [µM] | Variant | yeast surface expression [2]
0.0747 | chain 1 D31C | 0.608
0.00166 | chain 1 D31G | 0.887
0.00154 | chain 1 D31K | 0.867
0.00258 | chain 1 D31Q | 0.877
0.00194 | chain 1 D31M | 0.58
0.000825 | chain 1 D31N | 1.1
0.00638 | chain 1 D31L | 0.509
0.00371 | chain 1 D31T | 0.766
0.00278 | chain 1 D31E | 0.925
0.00204 | chain 1 D31R | 0.736
0.00179 | chain 1 D31H | 0.763
0.00547 | chain 1 D31F | 0.636
0.00293 | chain 1 D31W | 0.566
0.00343 | chain 1 D31A | 0.772
0.00334 | chain 1 D31Y | 0.729
0.00325 | chain 1 D31N V37I | 0.855
0.47 | chain 1 D31N V37H | 0.626
0.00785 | chain 1 D31G V37N | 0.512
0.195 | chain 1 D31V M34R | 0.17
0.676 | chain 1 D31V M34E | 2.76
0.0302 | chain 1 D31G Y32L | 0.645
0.00871 | chain 1 D106N W108I | 0.556
0.0494 | chain 1 D31T M34Y | 0.706
0.0692 | chain 1 D31T M34E | 0.635
0.228 | chain 1 D106E W108I | 0.866
8.13 | chain 1 D31E Y32M | 0.789
2.11 | chain 1 D31T W33F | 0.629
